Drawing on patent publication US20030229922A1, “Materials and methods for the modification of plant cell wall polysaccharides” (GENESIS RESEARCH AND DEVELOPMENT CORPORATION LTD., priority 1998, published 2003), this text covers Km for one substance.

Data set [1] relates to T1, O=c1ccn([C@@H]2O[C@H](COP(=O)(O)OP(=O)(O)O)[C@@H](O)[C@H]2O)c(=O)[nH]1.
T1 construct: wild type
The data set is described as follows: SUS (sucrose synthase) enzyme assay (purified recombinant protein). Type of data set: biochemical, Eucalyptus grandis. As to conditions: other: E. grandis SUS; SEM 0.003. From the text: (§1) Sense constructs containing sequences including the coding regions for UGP (SEQ ID NO: 79) and SUS (SEQ ID NO: 105) from Eucalyptus grandis, and UGP (SEQ ID NO: 80) from Pinus radiata were inserted into the expression vector pET16b (Clontech Laboratories Inc, Palo Alto, Calif.). The resulting constructs were transformed into E. coli XL1-Blue (Stratagene) and induced to produce recombinant protein by the addition of IPTG. Purified proteins were obtained using Ni^2+ column chromatography (Janknecht et al., Proc. Natl. Acad. Sci. USA, 88:8972-8976, 1991).
(§2) Enzyme assays for SUS (sucrose synthase) were performed using the methods described by Sebkova et al. Plant Physiol., 108:75-83, 1995. […] The KM^Sucrose of E. grandis is compared with the data reported by Delmer, J. Biol. Chem. 247:3822-3828, 1972 and Nakai et al., Biosci. Biotech. Biochem. 61:1500-1503, 1997.

In data set [2] the test system is T2, OC[C@H]1O[C@@](CO)(O[C@H]2O[C@H](CO)[C@@H](O)[C@H](O)[C@H]2O)[C@@H](O)[C@@H]1O.
T2 construct: wild type
The description is as above. Format: biochemical, Eucalyptus grandis. Particulars: other: E. grandis SUS; SEM 0.371.
Excerpt: as §1, §2

Eucalyptus grandis SUS (sucrose synthase), SEQ ID NO: 105 (DNA; protein SEQ ID NO: 106) (Eucalyptus grandis), sequence (chain, as listed by the source): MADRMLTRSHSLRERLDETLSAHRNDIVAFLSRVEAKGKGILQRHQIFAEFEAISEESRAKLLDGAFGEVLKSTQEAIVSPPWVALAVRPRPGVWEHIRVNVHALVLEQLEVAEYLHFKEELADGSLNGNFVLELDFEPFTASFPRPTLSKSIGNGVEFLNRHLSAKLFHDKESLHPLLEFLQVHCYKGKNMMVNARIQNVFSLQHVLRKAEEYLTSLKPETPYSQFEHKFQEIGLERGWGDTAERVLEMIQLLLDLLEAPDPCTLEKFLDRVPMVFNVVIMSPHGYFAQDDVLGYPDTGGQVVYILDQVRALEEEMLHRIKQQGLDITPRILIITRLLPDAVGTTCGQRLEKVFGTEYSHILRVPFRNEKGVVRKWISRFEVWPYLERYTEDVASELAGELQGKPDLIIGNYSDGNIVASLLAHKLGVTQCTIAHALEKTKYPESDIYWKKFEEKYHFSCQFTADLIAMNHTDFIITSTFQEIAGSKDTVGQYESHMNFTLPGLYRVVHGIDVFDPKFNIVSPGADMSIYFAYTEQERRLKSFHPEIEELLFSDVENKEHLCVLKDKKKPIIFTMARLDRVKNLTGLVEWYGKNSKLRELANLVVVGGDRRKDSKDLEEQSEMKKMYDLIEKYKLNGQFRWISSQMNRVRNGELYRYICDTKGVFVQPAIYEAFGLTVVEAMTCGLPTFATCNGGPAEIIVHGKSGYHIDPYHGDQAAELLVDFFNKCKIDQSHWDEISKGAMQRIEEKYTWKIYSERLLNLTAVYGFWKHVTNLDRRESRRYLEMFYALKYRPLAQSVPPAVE

The Km is the concentration of substrate that gives half-maximal velocity. With “Eucalyptus grandis SUS (sucrose synthase), SEQ ID NO: 105 (DNA; protein SEQ ID NO: 106) (Eucalyptus grandis)”, the Km in data set [1] was 28 µM; in data set [2], 1650 µM.
